These results are taken from PMC6056229, “Cryo-EM structure of the polycystin 2-l1 ion channel” (eLife, 2018).

This series deals with the molecule itself. Description: cryo-EM structure; single particle cryo-EM of purified full-length polycystin 2-l1 in amphipol PMAL-C8, HKN buffer (HEPES 50, KCl 150, NaCl 50, CaCl2 5 mM; pH 7.5), C4 symmetry imposed, 3.3 Å.

B1: human polycystic kidney disease 2-like 1 (polycystin 2-l1) ion channel (natural protein, UniProt Q9P0L9 1-805, looked up)
chain: MNAVGSPEGQELQKLGSGAWDNPAYSGPPSPHGTLRVCTISSTGPLQPQPKKPEDEPQETAYRTQVSSCCLHICQGIRGLWGTTLTENTAENRELYIKTTLRELLVYIVFLVDICLLTYGMTSSSAYYYTKVMSELFLHTPSDTGVSFQAISSMADFWDFAQGPLLDSLYWTKWYNNQSLGHGSHSFIYYENMLLGVPRLRQLKVRNDSCVVHEDFREDILSCYDVYSPDKEEQLPFGPFNGTAWTYHSQDELGGFSHWGRLTSYSGGGYYLDLPGSRQGSAEALRALQEGLWLDRGTRVVFIDFSVYNANINLFCVLRLVVEFPATGGAIPSWQIRTVKLIRYVSNWDFFIVGCEVIFCVFIFYYVVEEILELHIHRLRYLSSIWNILDLVVILLSIVAVGFHIFRTLEVNRLMGKLLQQPNTYADFEFLAFWQTQYNNMNAVNLFFAWIKIFKYISFNKTMTQLSSTLARCAKDILGFAVMFFIVFFAYAQLGYLLFGTQVENFSTFIKCIFTQFRIILGDFDYNAIDNANRILGPAYFVTYVFFVFFVLLNMFLAIINDTYSEVKEELAGQKDELQLSDLLKQGYNKTLLRLRLRKERVSDVQKVLQGGEQEIQFEDFTNTLRELGHAEHEITELTATFTKFDRDGNRILDEKEQEKMRQDLEEERVALNTEIEKLGRSIVSSPQGKSGPEAARAGGWVSGEEFYMLTRRVLQLETVLEGVVSQIDAVGSKLKMLERKGWLAPSPGVKEQAIWKHPQPAPAVTPDPWGVQGGQESEVPYKREEEALEERRLSRGEIPTLQRS
modifications: glycan at N207; disulfide bond C210-C223
notes: polycystin 2-l1 (PKD2L1), human, full length; synthetic gene, not codon optimized; UniProt Q9P0L9; No cleavage of the MBP tag is described; fractions were found by western blot against MBP during the preparation for cryo-EM; The N terminus, the S4-S5 linker and the C terminus are not resolved in the map; also called PKD2L1; PC-2L1
A word on the stoichiometry N: it is the number of molecules, sites or subunits per partner or assembly. Regarding B1, the “stoichiometry N” value was determined as 4.
